Reference: paper PMC3435407 (PLoS ONE, 2012)
Non-standard residues stand in square brackets, D forms with d. No end group written: not given here. *: point of attachment. Biotin = O=C1N[C@H]2[C@H](CS[C@H]2CCCCC(=O)*)N1; Bpa = N[C@@H](Cc1ccc(C(=O)c2ccccc2)cc1)C(=O)O

Assays:
[1] = target: T1, αAG98R-crystallin (human αA-crystallin G98R mutant) (human, UniProt P02489 1-173, G98R); experiment: cross-linking; 200 µg biotinyl-Bpa peptide with 200 µg αAG98R, pH 7.2, 37°C, 1 hr; free peptide removed on a 10 kDa filter; photolysis at 365 nm, 30 min, 4°C; SDS-PAGE and western blot for biotin (avidin-horseradish peroxidase); conditions: both partners purified
T1 sequence (P02489 whole entry G98R): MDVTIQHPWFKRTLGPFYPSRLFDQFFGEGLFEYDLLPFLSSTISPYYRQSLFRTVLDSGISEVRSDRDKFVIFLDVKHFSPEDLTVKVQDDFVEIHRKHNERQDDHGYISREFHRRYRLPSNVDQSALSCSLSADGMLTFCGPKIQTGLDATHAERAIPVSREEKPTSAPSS

[2] = target: T1, αAG98R-crystallin (human αA-crystallin …); experiment: cross-linking; 200 µg biotinyl-Bpa peptide with 200 µg αAG98R, pH 7.2, 37°C, 1 hr; free peptide removed on a 10 kDa filter; photolysis at 365 nm, 30 min, 4°C; desalted on C18; MALDI-TOF/TOF mass spectrometry; conditions: both partners purified

stoichiometry N [1]: 1 peptide per αAG98R subunit
stoichiometry N [2]: 1 peptide per αAG98R monomer
Binder: Biotin-DFVIFLDVKH[Bpa]SPEDLTVK [Biotin-DFVIFLDVKH(Bpa)SPEDLTVK (biotinyl αA-mini-chaperone-Bpa peptide)]
